# Measurements as given in article PMC7815104.
# Target: recombinant soluble canine IL-10 receptor alpha chain (R1), extra-cytoplasmic domain (canine)
# Test: SPR; rcasIL-10R1 covalently immobilised (EDC/NHS) on a CM5 chip to 1000 RU, Biacore T100; cytokines in PBS with 0.05% Tween 20 applied for 2 min 30 s; each sample evaluated twice, mean ± SD of RU
substance,measurement,value
recombinant canine IL-10 (from UniProt P48411 20-181) (ligand),RU at 31.2 ng/mL,211 RU
same,RU at 125 ng/mL (plateau),1720 RU
same,binding equilibrium constant (EC80),51.4 nM
